According to article PMC4728560, “TCTP contains a BH3-like domain, which instead of inhibiting, activates Bcl-xL” (Scientific Reports, 2016):

Target: T1, Bcl-xL, recombinant protein (human, UniProt Q07817-1 1-233)
T1 construct: Bcl-xL, human; also called wild type Bcl-xL; source: purified recombinant protein; host and details in Supplementary Information
Assay: ITC; peptide titrated into Bcl-xL in the cell; 30 °C, 50 mM ammonium bicarbonate pH 9; ITC200 calorimeter
Conditions: both partners purified

T1 sequence (Q07817 whole entry): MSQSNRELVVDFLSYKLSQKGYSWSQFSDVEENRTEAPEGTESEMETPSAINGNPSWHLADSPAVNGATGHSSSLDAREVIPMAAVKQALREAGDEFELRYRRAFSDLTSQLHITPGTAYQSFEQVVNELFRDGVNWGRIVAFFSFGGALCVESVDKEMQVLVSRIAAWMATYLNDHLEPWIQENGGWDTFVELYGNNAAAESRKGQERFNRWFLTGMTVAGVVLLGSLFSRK

QPPQDASTKKLSECIREIADGLCLEV [hybrid Bax/TCTP peptide (TCTP BH3 peptide containing the Bax h1 (P1) sub-region)]
Kd: 500 nM
